In patent US20150344570A1 (published 2015):

T1: FcγRIIa R (FcγRIIa, allotype with Arg at position 131), extracellular domain with C-terminal His tag (human, UniProt P12318 34-217)
T1 construct: extracellular domain; also called FcγRIIa R type; 2aR
T1 sequence (looked up): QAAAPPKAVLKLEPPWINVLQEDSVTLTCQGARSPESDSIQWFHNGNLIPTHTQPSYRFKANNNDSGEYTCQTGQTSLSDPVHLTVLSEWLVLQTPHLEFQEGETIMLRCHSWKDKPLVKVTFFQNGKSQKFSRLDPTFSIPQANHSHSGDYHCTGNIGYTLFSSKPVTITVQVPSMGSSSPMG


Molecular target: T1, FcγRIIa R (FcγRIIa, allotype with Arg …)
Assay: SPR (Biacore), antibody captured on antigen peptide chip, FcγR as analyte; relative binding
Experimental: Analysis of interaction between objective antibody and the FcγR was carried out using Biacore T100 (GE Healthcare). HBS-EP+ (GE Healthcare) was used as the running buffer, and the measurement temperature was set to 25° C. Chips produced by immobilizing the antigen peptide by the amine coupling method to a Series S Sencor Chip CM5 (GE Healthcare), or alternatively, chips produced by allowing preliminarily biotinylated antigen peptides to interact with and immobilize onto a Series S Sensor Chip SA (certified) (GE Healthcare) were used. Antibodies of interest were captured onto an antigen peptide-immobilized chip, and allowed to interact to each FcγR diluted with running buffer. To regenerate and repeatedly use the chip, the antibodies captured on the chip were washed off by reacting 10 mM glycine-HCl, pH 1.5.

Ho/Con_2aR	Binder
102 % of GpH7-B3/GpL16-k0 (=100)	GpH7-B3 variant S337_19Q/GpL16-k0 (antibody, human IgG1, kappa, also called Ho Ab) heavy: not shown light: DIVMTQSPLSLPVTPGEPASISCQASESLVHSNRNTYLHWYLQKPGQSPQLLIYKVSNRFSGVPDRFSGSGSGTDFTLKISRVEAEDVGVYYCSQNTHVPPTFGQGTKVEIERTVAAPSVFIFPPSDEQLKSGTASVVCLLNNFYPREAKVQWKVDNALQSGNSQESVTEQDSKDSTYSLSSTLTLSKADYEKHKVYACEVTHQGLSSPVTKSFNRGEC
97.7 % of GpH7-B3/GpL16-k0 (=100)	GpH7-B3 variant T335_01G/GpL16-k0 (antibody, human IgG1, kappa, also called Ho Ab) heavy: not shown light: DIVMTQSPLSLPVTPGEPASISCQASESLVHSNRNTYLHWYLQKPGQSPQLLIYKVSNRFSGVPDRFSGSGSGTDFTLKISRVEAEDVGVYYCSQNTHVPPTFGQGTKVEIERTVAAPSVFIFPPSDEQLKSGTASVVCLLNNFYPREAKVQWKVDNALQSGNSQESVTEQDSKDSTYSLSSTLTLSKADYEKHKVYACEVTHQGLSSPVTKSFNRGEC
105 % of GpH7-B3/GpL16-k0 (=100)	GpH7-B3 variant S337_20W/GpL16-k0 (antibody, human IgG1, kappa, also called Ho Ab) heavy: not shown light: DIVMTQSPLSLPVTPGEPASISCQASESLVHSNRNTYLHWYLQKPGQSPQLLIYKVSNRFSGVPDRFSGSGSGTDFTLKISRVEAEDVGVYYCSQNTHVPPTFGQGTKVEIERTVAAPSVFIFPPSDEQLKSGTASVVCLLNNFYPREAKVQWKVDNALQSGNSQESVTEQDSKDSTYSLSSTLTLSKADYEKHKVYACEVTHQGLSSPVTKSFNRGEC
102 % of GpH7-B3/GpL16-k0 (=100)	GpH7-B3 variant T335_19Q/GpL16-k0 (antibody, human IgG1, kappa, also called Ho Ab) heavy: not shown light: DIVMTQSPLSLPVTPGEPASISCQASESLVHSNRNTYLHWYLQKPGQSPQLLIYKVSNRFSGVPDRFSGSGSGTDFTLKISRVEAEDVGVYYCSQNTHVPPTFGQGTKVEIERTVAAPSVFIFPPSDEQLKSGTASVVCLLNNFYPREAKVQWKVDNALQSGNSQESVTEQDSKDSTYSLSSTLTLSKADYEKHKVYACEVTHQGLSSPVTKSFNRGEC
83.1 % of GpH7-B3/GpL16-k0 (=100)	GpH7-B3 variant Y296_07I/GpL16-k0 (antibody, human IgG1, kappa, also called Ho Ab) heavy: not shown light: DIVMTQSPLSLPVTPGEPASISCQASESLVHSNRNTYLHWYLQKPGQSPQLLIYKVSNRFSGVPDRFSGSGSGTDFTLKISRVEAEDVGVYYCSQNTHVPPTFGQGTKVEIERTVAAPSVFIFPPSDEQLKSGTASVVCLLNNFYPREAKVQWKVDNALQSGNSQESVTEQDSKDSTYSLSSTLTLSKADYEKHKVYACEVTHQGLSSPVTKSFNRGEC
104 % of GpH7-B3/GpL16-k0 (=100)	GpH7-B3 variant T335_05P/GpL16-k0 (antibody, human IgG1, kappa, also called Ho Ab) heavy: not shown light: DIVMTQSPLSLPVTPGEPASISCQASESLVHSNRNTYLHWYLQKPGQSPQLLIYKVSNRFSGVPDRFSGSGSGTDFTLKISRVEAEDVGVYYCSQNTHVPPTFGQGTKVEIERTVAAPSVFIFPPSDEQLKSGTASVVCLLNNFYPREAKVQWKVDNALQSGNSQESVTEQDSKDSTYSLSSTLTLSKADYEKHKVYACEVTHQGLSSPVTKSFNRGEC
94 % of GpH7-B3/GpL16-k0 (=100)	GpH7-B3 variant T335_12R/GpL16-k0 (antibody, human IgG1, kappa, also called Ho Ab) heavy: not shown light: DIVMTQSPLSLPVTPGEPASISCQASESLVHSNRNTYLHWYLQKPGQSPQLLIYKVSNRFSGVPDRFSGSGSGTDFTLKISRVEAEDVGVYYCSQNTHVPPTFGQGTKVEIERTVAAPSVFIFPPSDEQLKSGTASVVCLLNNFYPREAKVQWKVDNALQSGNSQESVTEQDSKDSTYSLSSTLTLSKADYEKHKVYACEVTHQGLSSPVTKSFNRGEC
84 % of GpH7-B3/GpL16-k0 (=100)	GpH7-B3 variant Y296_06M/GpL16-k0 (antibody, human IgG1, kappa, also called Ho Ab) heavy: not shown light: DIVMTQSPLSLPVTPGEPASISCQASESLVHSNRNTYLHWYLQKPGQSPQLLIYKVSNRFSGVPDRFSGSGSGTDFTLKISRVEAEDVGVYYCSQNTHVPPTFGQGTKVEIERTVAAPSVFIFPPSDEQLKSGTASVVCLLNNFYPREAKVQWKVDNALQSGNSQESVTEQDSKDSTYSLSSTLTLSKADYEKHKVYACEVTHQGLSSPVTKSFNRGEC
101 % of GpH7-B3/GpL16-k0 (=100)	GpH7-B3 variant T335_20W/GpL16-k0 (antibody, human IgG1, kappa, also called Ho Ab) heavy: not shown light: DIVMTQSPLSLPVTPGEPASISCQASESLVHSNRNTYLHWYLQKPGQSPQLLIYKVSNRFSGVPDRFSGSGSGTDFTLKISRVEAEDVGVYYCSQNTHVPPTFGQGTKVEIERTVAAPSVFIFPPSDEQLKSGTASVVCLLNNFYPREAKVQWKVDNALQSGNSQESVTEQDSKDSTYSLSSTLTLSKADYEKHKVYACEVTHQGLSSPVTKSFNRGEC
102 % of GpH7-B3/GpL16-k0 (=100)	GpH7-B3 variant T335_13S/GpL16-k0 (antibody, human IgG1, kappa, also called Ho Ab) heavy: not shown light: DIVMTQSPLSLPVTPGEPASISCQASESLVHSNRNTYLHWYLQKPGQSPQLLIYKVSNRFSGVPDRFSGSGSGTDFTLKISRVEAEDVGVYYCSQNTHVPPTFGQGTKVEIERTVAAPSVFIFPPSDEQLKSGTASVVCLLNNFYPREAKVQWKVDNALQSGNSQESVTEQDSKDSTYSLSSTLTLSKADYEKHKVYACEVTHQGLSSPVTKSFNRGEC
94.5 % of GpH7-B3/GpL16-k0 (=100)	GpH7-B3 variant Y296_09D/GpL16-k0 (antibody, human IgG1, kappa, also called Ho Ab) heavy: not shown light: DIVMTQSPLSLPVTPGEPASISCQASESLVHSNRNTYLHWYLQKPGQSPQLLIYKVSNRFSGVPDRFSGSGSGTDFTLKISRVEAEDVGVYYCSQNTHVPPTFGQGTKVEIERTVAAPSVFIFPPSDEQLKSGTASVVCLLNNFYPREAKVQWKVDNALQSGNSQESVTEQDSKDSTYSLSSTLTLSKADYEKHKVYACEVTHQGLSSPVTKSFNRGEC
106 % of GpH7-B3/GpL16-k0 (=100)	GpH7-B3 variant Y296_04F/GpL16-k0 (antibody, human IgG1, kappa, also called Ho Ab) heavy: not shown light: DIVMTQSPLSLPVTPGEPASISCQASESLVHSNRNTYLHWYLQKPGQSPQLLIYKVSNRFSGVPDRFSGSGSGTDFTLKISRVEAEDVGVYYCSQNTHVPPTFGQGTKVEIERTVAAPSVFIFPPSDEQLKSGTASVVCLLNNFYPREAKVQWKVDNALQSGNSQESVTEQDSKDSTYSLSSTLTLSKADYEKHKVYACEVTHQGLSSPVTKSFNRGEC
107 % of GpH7-B3/GpL16-k0 (=100)	GpH7-B3 variant T335_07I/GpL16-k0 (antibody, human IgG1, kappa, also called Ho Ab) heavy: not shown light: DIVMTQSPLSLPVTPGEPASISCQASESLVHSNRNTYLHWYLQKPGQSPQLLIYKVSNRFSGVPDRFSGSGSGTDFTLKISRVEAEDVGVYYCSQNTHVPPTFGQGTKVEIERTVAAPSVFIFPPSDEQLKSGTASVVCLLNNFYPREAKVQWKVDNALQSGNSQESVTEQDSKDSTYSLSSTLTLSKADYEKHKVYACEVTHQGLSSPVTKSFNRGEC
100 % of GpH7-B3/GpL16-k0 (=100)	GpH7-B3 variant T335_18N/GpL16-k0 (antibody, human IgG1, kappa, also called Ho Ab) heavy: not shown light: DIVMTQSPLSLPVTPGEPASISCQASESLVHSNRNTYLHWYLQKPGQSPQLLIYKVSNRFSGVPDRFSGSGSGTDFTLKISRVEAEDVGVYYCSQNTHVPPTFGQGTKVEIERTVAAPSVFIFPPSDEQLKSGTASVVCLLNNFYPREAKVQWKVDNALQSGNSQESVTEQDSKDSTYSLSSTLTLSKADYEKHKVYACEVTHQGLSSPVTKSFNRGEC
146 % of GpH7-B3/GpL16-k0 (=100)	GpH7-B3 variant V266_06M/GpL16-k0 (antibody, human IgG1, kappa, also called Ho Ab) heavy: not shown light: DIVMTQSPLSLPVTPGEPASISCQASESLVHSNRNTYLHWYLQKPGQSPQLLIYKVSNRFSGVPDRFSGSGSGTDFTLKISRVEAEDVGVYYCSQNTHVPPTFGQGTKVEIERTVAAPSVFIFPPSDEQLKSGTASVVCLLNNFYPREAKVQWKVDNALQSGNSQESVTEQDSKDSTYSLSSTLTLSKADYEKHKVYACEVTHQGLSSPVTKSFNRGEC
102 % of GpH7-B3/GpL16-k0 (=100)	GpH7-B3 variant T335_02A/GpL16-k0 (antibody, human IgG1, kappa, also called Ho Ab) heavy: not shown light: DIVMTQSPLSLPVTPGEPASISCQASESLVHSNRNTYLHWYLQKPGQSPQLLIYKVSNRFSGVPDRFSGSGSGTDFTLKISRVEAEDVGVYYCSQNTHVPPTFGQGTKVEIERTVAAPSVFIFPPSDEQLKSGTASVVCLLNNFYPREAKVQWKVDNALQSGNSQESVTEQDSKDSTYSLSSTLTLSKADYEKHKVYACEVTHQGLSSPVTKSFNRGEC
90.2 % of GpH7-B3/GpL16-k0 (=100)	GpH7-B3 variant Y296_10E/GpL16-k0 (antibody, human IgG1, kappa, also called Ho Ab) heavy: not shown light: DIVMTQSPLSLPVTPGEPASISCQASESLVHSNRNTYLHWYLQKPGQSPQLLIYKVSNRFSGVPDRFSGSGSGTDFTLKISRVEAEDVGVYYCSQNTHVPPTFGQGTKVEIERTVAAPSVFIFPPSDEQLKSGTASVVCLLNNFYPREAKVQWKVDNALQSGNSQESVTEQDSKDSTYSLSSTLTLSKADYEKHKVYACEVTHQGLSSPVTKSFNRGEC
107 % of GpH7-B3/GpL16-k0 (=100)	GpH7-B3 variant T335_15Y/GpL16-k0 (antibody, human IgG1, kappa, also called Ho Ab) heavy: not shown light: DIVMTQSPLSLPVTPGEPASISCQASESLVHSNRNTYLHWYLQKPGQSPQLLIYKVSNRFSGVPDRFSGSGSGTDFTLKISRVEAEDVGVYYCSQNTHVPPTFGQGTKVEIERTVAAPSVFIFPPSDEQLKSGTASVVCLLNNFYPREAKVQWKVDNALQSGNSQESVTEQDSKDSTYSLSSTLTLSKADYEKHKVYACEVTHQGLSSPVTKSFNRGEC
109 % of GpH7-B3/GpL16-k0 (=100)	GpH7-B3 variant T335_10E/GpL16-k0 (antibody, human IgG1, kappa, also called Ho Ab) heavy: not shown light: DIVMTQSPLSLPVTPGEPASISCQASESLVHSNRNTYLHWYLQKPGQSPQLLIYKVSNRFSGVPDRFSGSGSGTDFTLKISRVEAEDVGVYYCSQNTHVPPTFGQGTKVEIERTVAAPSVFIFPPSDEQLKSGTASVVCLLNNFYPREAKVQWKVDNALQSGNSQESVTEQDSKDSTYSLSSTLTLSKADYEKHKVYACEVTHQGLSSPVTKSFNRGEC
88.1 % of GpH7-B3/GpL16-k0 (=100)	GpH7-B3 variant Y296_13S/GpL16-k0 (antibody, human IgG1, kappa, also called Ho Ab) heavy: not shown light: DIVMTQSPLSLPVTPGEPASISCQASESLVHSNRNTYLHWYLQKPGQSPQLLIYKVSNRFSGVPDRFSGSGSGTDFTLKISRVEAEDVGVYYCSQNTHVPPTFGQGTKVEIERTVAAPSVFIFPPSDEQLKSGTASVVCLLNNFYPREAKVQWKVDNALQSGNSQESVTEQDSKDSTYSLSSTLTLSKADYEKHKVYACEVTHQGLSSPVTKSFNRGEC
102 % of GpH7-B3/GpL16-k0 (=100)	GpH7-B3 variant T335_16H/GpL16-k0 (antibody, human IgG1, kappa, also called Ho Ab) heavy: not shown light: DIVMTQSPLSLPVTPGEPASISCQASESLVHSNRNTYLHWYLQKPGQSPQLLIYKVSNRFSGVPDRFSGSGSGTDFTLKISRVEAEDVGVYYCSQNTHVPPTFGQGTKVEIERTVAAPSVFIFPPSDEQLKSGTASVVCLLNNFYPREAKVQWKVDNALQSGNSQESVTEQDSKDSTYSLSSTLTLSKADYEKHKVYACEVTHQGLSSPVTKSFNRGEC
